Results on 8 molecules are retold here after patent publication US11833164B2, “Methods of treating Fabry disease in patients having a mutation in the GLA gene” (Amicus Therapeutics, Inc., priority 2019, dated 2023).

The assay relates to mutant form of α-Gal A expressed in HEK-293 cells. Briefly: HEK assay (GLP HEK / Migalastat Amenability Assay): α-Gal A activity in lysates of transiently transfected HEK-293 cells incubated with or without 10 μM migalastat. The format is cell-based, human. Conditions: for Absolute increase (% WT): 10 μM migalastat versus baseline; for Relative increase: 10 μM migalastat α-Gal A activity relative to baseline; for 10 μM migalastat α-Gal A activity (% WT): 5 days; for 10 μM migalastat α-Gal A activity (% WT) / Baseline α-Gal A activity (% WT): percentage of baseline wild-type α-Gal A activity; for 10 μM migalastat α-Gal A activity (% WT) / Baseline α-Gal A activity (% WT) / Baseline α-Gal A activity / 10 μM migalastat α-Gal A activity: mean ± SEM; for Baseline α-Gal A activity (% WT): absence of migalastat; for Baseline α-Gal A activity / 10 μM migalastat α-Gal A activity: lysates of HEK-293 cells transfected with the mutant form; for Baseline α-Gal A activity: incubated 5 days in the absence of migalastat; for 10 μM migalastat α-Gal A activity: incubated 5 days with 10 μM migalastat. The method in brief: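 HEK-293 cells transiently transfected with mutant α-Gal A and incubated with or without 10 μM migalastat; lysate activity given as nmol free 4-MU released per mg protein per hour. Values are mean±SEM.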

B1: F159V (protein)
chain: MQLRNPELHLGCALALRFLALVSWDIPGARALDNGLARTPTMGWLHWERFMCNLDCQEEPDSCISEKLFMEMAELMVSEGWKDAGYEYLCIDDCWMAPQRDSEGRLQADPQRFPHGIRQLANYVHSKGLKLGIYADVGNKTCAGFPGSFGYYDIDAQTVADWGVDLLKFDGCYCDSLENLADGYKHMSLALNRTGRSIVYSCEWPLYMWPFQKPNYTEIRQYCNHWRNFADIDDSWKSIKSILDWTSFNQERIVDVAGPGGWNDPDMLVIGNFGLSWNQQVTQMALWAIMAAPLFMSNDLRHISPQAKALLQDKDVIAINQDPLGKQGYQLRQGDNFEVWERPLSGLAWAVAMINRQEIGGPRSYTIAVASLGKGVACNPACFITQLLPVKRKLGFYEWTSRLRSHINPTGTVLLQLENTMQMSLKDLL
As for B1, the “Absolute increase (% WT)” value came to 29.8 % WT, the Relative increase is recorded as 1.6, the “10 μM migalastat α-Gal A activity (% WT)” value is 80.7 ± 4.8 % WT and the “Baseline α-Gal A activity (% WT)” value is given as 50.9 ± 2.9 % WT. For the same molecule, the “Baseline α-Gal A activity” value turned out to be 16474 ± 1048 nmol/mg/h and the “10 μM migalastat α-Gal A activity” value was 26241 ± 1907 nmol/mg/h.

B2: D161H (protein)
chain: MQLRNPELHLGCALALRFLALVSWDIPGARALDNGLARTPTMGWLHWERFMCNLDCQEEPDSCISEKLFMEMAELMVSEGWKDAGYEYLCIDDCWMAPQRDSEGRLQADPQRFPHGIRQLANYVHSKGLKLGIYADVGNKTCAGFPGSFGYYDIDAQTFAHWGVDLLKFDGCYCDSLENLADGYKHMSLALNRTGRSIVYSCEWPLYMWPFQKPNYTEIRQYCNHWRNFADIDDSWKSIKSILDWTSFNQERIVDVAGPGGWNDPDMLVIGNFGLSWNQQVTQMALWAIMAAPLFMSNDLRHISPQAKALLQDKDVIAINQDPLGKQGYQLRQGDNFEVWERPLSGLAWAVAMINRQEIGGPRSYTIAVASLGKGVACNPACFITQLLPVKRKLGFYEWTSRLRSHINPTGTVLLQLENTMQMSLKDLL
As for B2, the “Absolute increase (% WT)” value worked out at 15.5 % WT, the Relative increase is reported as 1.2, the “10 μM migalastat α-Gal A activity (% WT)” value is reported as 77 ± 3.8 % WT and the “Baseline α-Gal A activity (% WT)” value was 61.5 ± 2.9 % WT. Besides, the “Baseline α-Gal A activity” value was found to be 21949 ± 2587 nmol/mg/h and the “10 μM migalastat α-Gal A activity” value was 26457 ± 2512 nmol/mg/h.

B3: F159Y (protein)
chain: MQLRNPELHLGCALALRFLALVSWDIPGARALDNGLARTPTMGWLHWERFMCNLDCQEEPDSCISEKLFMEMAELMVSEGWKDAGYEYLCIDDCWMAPQRDSEGRLQADPQRFPHGIRQLANYVHSKGLKLGIYADVGNKTCAGFPGSFGYYDIDAQTYADWGVDLLKFDGCYCDSLENLADGYKHMSLALNRTGRSIVYSCEWPLYMWPFQKPNYTEIRQYCNHWRNFADIDDSWKSIKSILDWTSFNQERIVDVAGPGGWNDPDMLVIGNFGLSWNQQVTQMALWAIMAAPLFMSNDLRHISPQAKALLQDKDVIAINQDPLGKQGYQLRQGDNFEVWERPLSGLAWAVAMINRQEIGGPRSYTIAVASLGKGVACNPACFITQLLPVKRKLGFYEWTSRLRSHINPTGTVLLQLENTMQMSLKDLL
As for B3, the “Absolute increase (% WT)” value was found to be 22.4 % WT, the Relative increase stood at 3.9, the “10 μM migalastat α-Gal A activity (% WT)” value is 30.1 ± 1.7 % WT and the “Baseline α-Gal A activity (% WT)” value amounted to 7.7 ± 0.7 % WT. The “Baseline α-Gal A activity” value turned out to be 2573 ± 301 nmol/mg/h and the “10 μM migalastat α-Gal A activity” value was found to be 10052 ± 825 nmol/mg/h.

B4: A160V (protein)
chain: MQLRNPELHLGCALALRFLALVSWDIPGARALDNGLARTPTMGWLHWERFMCNLDCQEEPDSCISEKLFMEMAELMVSEGWKDAGYEYLCIDDCWMAPQRDSEGRLQADPQRFPHGIRQLANYVHSKGLKLGIYADVGNKTCAGFPGSFGYYDIDAQTFVDWGVDLLKFDGCYCDSLENLADGYKHMSLALNRTGRSIVYSCEWPLYMWPFQKPNYTEIRQYCNHWRNFADIDDSWKSIKSILDWTSFNQERIVDVAGPGGWNDPDMLVIGNFGLSWNQQVTQMALWAIMAAPLFMSNDLRHISPQAKALLQDKDVIAINQDPLGKQGYQLRQGDNFEVWERPLSGLAWAVAMINRQEIGGPRSYTIAVASLGKGVACNPACFITQLLPVKRKLGFYEWTSRLRSHINPTGTVLLQLENTMQMSLKDLL
With B4, the “Absolute increase (% WT)” value was 21.9 % WT, the Relative increase amounted to 1.4, the “10 μM migalastat α-Gal A activity (% WT)” value is on record as 66 ± 4.8 % WT and the “Baseline α-Gal A activity (% WT)” value worked out at 44.1 ± 2.7 % WT. The “Baseline α-Gal A activity” value was 15511 ± 1847 nmol/mg/h and the “10 μM migalastat α-Gal A activity” value is 22124 ± 1885 nmol/mg/h.

B5: A160G (protein)
chain: MQLRNPELHLGCALALRFLALVSWDIPGARALDNGLARTPTMGWLHWERFMCNLDCQEEPDSCISEKLFMEMAELMVSEGWKDAGYEYLCIDDCWMAPQRDSEGRLQADPQRFPHGIRQLANYVHSKGLKLGIYADVGNKTCAGFPGSFGYYDIDAQTFGDWGVDLLKFDGCYCDSLENLADGYKHMSLALNRTGRSIVYSCEWPLYMWPFQKPNYTEIRQYCNHWRNFADIDDSWKSIKSILDWTSFNQERIVDVAGPGGWNDPDMLVIGNFGLSWNQQVTQMALWAIMAAPLFMSNDLRHISPQAKALLQDKDVIAINQDPLGKQGYQLRQGDNFEVWERPLSGLAWAVAMINRQEIGGPRSYTIAVASLGKGVACNPACFITQLLPVKRKLGFYEWTSRLRSHINPTGTVLLQLENTMQMSLKDLL
As to B5, the “Absolute increase (% WT)” value is 19.0 % WT, the Relative increase is recorded as 1.4, the “10 μM migalastat α-Gal A activity (% WT)” value came out at 54.1 ± 5.3 % WT and the “Baseline α-Gal A activity (% WT)” value was determined as 35.1 ± 3.7 % WT. In addition, the “Baseline α-Gal A activity” value stood at 13634 ± 2705 nmol/mg/h and the “10 μM migalastat α-Gal A activity” value came out at 19647 ± 3137 nmol/mg/h.

B6: A160S (protein)
chain: MQLRNPELHLGCALALRFLALVSWDIPGARALDNGLARTPTMGWLHWERFMCNLDCQEEPDSCISEKLFMEMAELMVSEGWKDAGYEYLCIDDCWMAPQRDSEGRLQADPQRFPHGIRQLANYVHSKGLKLGIYADVGNKTCAGFPGSFGYYDIDAQTFSDWGVDLLKFDGCYCDSLENLADGYKHMSLALNRTGRSIVYSCEWPLYMWPFQKPNYTEIRQYCNHWRNFADIDDSWKSIKSILDWTSFNQERIVDVAGPGGWNDPDMLVIGNFGLSWNQQVTQMALWAIMAAPLFMSNDLRHISPQAKALLQDKDVIAINQDPLGKQGYQLRQGDNFEVWERPLSGLAWAVAMINRQEIGGPRSYTIAVASLGKGVACNPACFITQLLPVKRKLGFYEWTSRLRSHINPTGTVLLQLENTMQMSLKDLL
In the case of B6, the “Absolute increase (% WT)” value amounted to 29.9 % WT, the Relative increase was 1.5, the “10 μM migalastat α-Gal A activity (% WT)” value is 85.9 ± 6.3 % WT and the “Baseline α-Gal A activity (% WT)” value came out at 56 ± 3.1 % WT. Besides, the “Baseline α-Gal A activity” value amounted to 18308 ± 685 nmol/mg/h and the “10 μM migalastat α-Gal A activity” value was found to be 27775 ± 1478 nmol/mg/h.

B7: D161N (protein)
chain: MQLRNPELHLGCALALRFLALVSWDIPGARALDNGLARTPTMGWLHWERFMCNLDCQEEPDSCISEKLFMEMAELMVSEGWKDAGYEYLCIDDCWMAPQRDSEGRLQADPQRFPHGIRQLANYVHSKGLKLGIYADVGNKTCAGFPGSFGYYDIDAQTFANWGVDLLKFDGCYCDSLENLADGYKHMSLALNRTGRSIVYSCEWPLYMWPFQKPNYTEIRQYCNHWRNFADIDDSWKSIKSILDWTSFNQERIVDVAGPGGWNDPDMLVIGNFGLSWNQQVTQMALWAIMAAPLFMSNDLRHISPQAKALLQDKDVIAINQDPLGKQGYQLRQGDNFEVWERPLSGLAWAVAMINRQEIGGPRSYTIAVASLGKGVACNPACFITQLLPVKRKLGFYEWTSRLRSHINPTGTVLLQLENTMQMSLKDLL
Take B7: the “Absolute increase (% WT)” value came out at 14.1 % WT, the Relative increase was found to be 1.2, the “10 μM migalastat α-Gal A activity (% WT)” value was 68.7 ± 4.9 % WT and the “Baseline α-Gal A activity (% WT)” value was 54.5 ± 4.3 % WT. In addition, the “Baseline α-Gal A activity” value was 19553 ± 2838 nmol/mg/h and the “10 μM migalastat α-Gal A activity” value worked out at 24298 ± 3201 nmol/mg/h.

B8: A160T (protein)
chain: MQLRNPELHLGCALALRFLALVSWDIPGARALDNGLARTPTMGWLHWERFMCNLDCQEEPDSCISEKLFMEMAELMVSEGWKDAGYEYLCIDDCWMAPQRDSEGRLQADPQRFPHGIRQLANYVHSKGLKLGIYADVGNKTCAGFPGSFGYYDIDAQTFTDWGVDLLKFDGCYCDSLENLADGYKHMSLALNRTGRSIVYSCEWPLYMWPFQKPNYTEIRQYCNHWRNFADIDDSWKSIKSILDWTSFNQERIVDVAGPGGWNDPDMLVIGNFGLSWNQQVTQMALWAIMAAPLFMSNDLRHISPQAKALLQDKDVIAINQDPLGKQGYQLRQGDNFEVWERPLSGLAWAVAMINRQEIGGPRSYTIAVASLGKGVACNPACFITQLLPVKRKLGFYEWTSRLRSHINPTGTVLLQLENTMQMSLKDLL
In the case of B8, the “Absolute increase (% WT)” value is 31.3 % WT, the Relative increase came out at 1.4, the “10 μM migalastat α-Gal A activity (% WT)” value was determined as 90.9 ± 8.1 % WT and the “Baseline α-Gal A activity (% WT)” value is listed as 59.6 ± 3.5 % WT. Moreover, the “Baseline α-Gal A activity” value stood at 20193 ± 1713 nmol/mg/h and the “10 μM migalastat α-Gal A activity” value was 29082 ± 1980 nmol/mg/h.
